{"source": "the DeepSol protein solubility set"}
{"test": "soluble on expression in E. coli; label from the status in PepcDB or PDB records"}
{"sequence": "MALQNISQNDFALHVQKAEQKSFMQTLEMAKLLSKRGFTLNYIAWLENGTIEISAILYSMPMTGGRYFEINCGPVVTRDKHLTDFYRELKDYVKEKGALELVIKPYDTYQTFDGDGQATSAEKKELISQLTNLGYHFDGLQRDYPNGEPDWHYVKDLSDISEQTLLKSFSKKGRPLVKKAKTFGTKLRRLNRDELNLFKEITSATSDRREYSDKSLDYYQDFYDSFGNNAEFMIASLNFENYLSHLQRDQNKLGNKIAKLQADLEKNPHSEKKQNQLRELSSQFDTFTTRQEEAQKFITKYGKKDVILAGSLFVYTPQEAVYLFSGSYPEFNKFYAPALLQEHVMLEALKRGISFYNLLGITGHFDNSDGVLRFKQNFNGYIVRKMGTFHYYPNPLKYRLLNTIKKILRR", "soluble on expression in E. coli": "not soluble"}
{"sequence": "MVDESKLQCYHKGCGLLFDPKENDNEACTYHPGGPYFHDAYKIWTCCDKKSTDFGTWMNYKGCTRGKHSNEKPVDIVKVAAVKEIRPEKEEDVIVWKGLNKSGKLDSKDATKRIEQNLNVEVTPGATAAIEKKLKEISEAAQSADIQIGAPCRNNGCSTEFDGSKNKENCQHHPGAAIFHEGMKYWSCCNKKTSNFGAFLEQVGCTSGEHKFRNNEIVSKFREDWFSSNGFVTINVYCRGALPETANIVSDGHTVRVSMKHGFGNASVDLDYDLWDEVIPEESRVVIGERKVEISLKQKHGTGWPRLKFDPELDAKNDEEA", "soluble on expression in E. coli": "not soluble"}
{"sequence": "MGSDKIHHHHHHMSGMIGKIQDKKIFSITIIPSSWCNFRCVYCYENDHYKIKNMITTSEMTKRIKLFLENNIKTGFFRKVHIRWYGGEPLLDFKTIIDIMDFTNSIGKTYKTDIIGEIITNGYLLDIVKFKILLEKGVKIFQVTIDGYKDAHDKLRPLLNGKPTFDKIFENLIQTRNVTDNFFMFIRSNVMPDNLDSIKKFLDLASNYFSRDRRYYFTFFPVTRSGGDNDKNLKVIEPKKRMEIIQELYMYATQLGLNIPDKDTLLQIDGVPAMDDLCQALYPFSIIIRNDGKLFKCPLTVMIDDESVGHIEEDGSIVLDESKINRWAKYILSPLSRGCPRLHELGEVVGVEAE", "soluble on expression in E. coli": "not soluble"}
{"sequence": "MGSDKIHHHHHHMKSIEELYKRALELKNKGMSDKEISTELHLSVNTVTWLLSKEFLKEGAVQDVKIGWRSVGVFGSRIISIAEIMSDIIREEMNKNSFEVDSILGIAINGIPYATLVSYLMDKELIVYRPHPARKEGVFSSNFASVEGKRVVIIDDVASTGETMRRTITDVTKEGGKPVLCVLLASKMSVNDLNGVPVRSLIRTQVIGGS", "soluble on expression in E. coli": "not soluble"}
{"sequence": "GMLKSKIKEEYVQMDQVDWKPFPAAFSTGGIRWKLLHVSPEMGSWTAIFDCPAGSSFAAHVHVGPGEYFLTKGKMDVRGGKAAGGDTAIAPGYGYESANARHDKTEFPVASEFYMSFLGPLTFVKPDGSPIAVIGWEDAQGAWAA", "soluble on expression in E. coli": "soluble"}
{"sequence": "PAVKPVIGEVTPNSIVAEAGIESGMELKAVSGIKTPDWESVNMGLISHIGDDAMTLTLTSDSEVGAEVTKTLDLRDWKFDPETESAMHSLGFAPYTPEIYRVIKQVSEDGAAAKAGVLPEDEIIAIGGEPINDWKQVVDAVRSNPNTPIELTVLRRGIEQSLTLTPDSRELANKQVVGFAGIAPEVAEWPESYRFELQFGVFESIGKAVDKTGQVIGLTVSMLKKLIVGDVGLNNLSGPISIAKGAGATADYGL", "soluble on expression in E. coli": "not soluble"}
{"sequence": "GPGSMTAAVDLEGVALHGHMKGVTMLKFNRDGDLLFSSAKDTNCSACCWQVKTGKLFGSYTTVGQVEGRTYDAAMVALDVNRESTLLATASAGEEVLLWSVESGALLGSVSRSLSSGASVGFSHDDTLMMVATKGRSSTNSAIQVYNVPFTVPKAGEDIAPVKTPFTTFSTFETPDTITWAAWGPTNETIYYSEGGYMNILDVEANKVIRSRQIHEDENEVINRFSWDPNYLALATASTDKTSHLIDFRDLATIQVYRSDVPVNDVSISPNADHVILGGGMDAASVTTQGGQSIFEVKFFHKVHGHQLGQLRCHFGTINAMSFHPDGRGFASASYDGLIKMYRFGDSYDSTPGAQPLWTL", "soluble on expression in E. coli": "not soluble"}
{"sequence": "MSLTITVLQGGNVLDLERGVLLEHHHVVIDGERIVEVTDRPVDLPNAQAIDVRGKTVMPGFIDCHVHVLASNANLGVNATQPNILAAIRSLPILDAMLSRGFTSVRDAGGADWSLMQAVETGLVSGPRIFPSGKALSQTGGHGDFRPRGDLLEPCSCCFRTGAIARVVDGVEGVRLAVREEIQKGATQIKIMASGGVASPTDPIANTQYSEDEIRAIVDEAEAANTYVMAHAYTGRAIARAVRCGVRTIEHGNLVDEAAAKLMHEHGAFVVPTLVTYDALAKHGAEFGMPPESVAKVASVQQKGRESLEIYANAGVKMGFGSDLLGEMHAFQSGEFRIRAEVLGNLEALRSATTVAAEIVNMQGQLGVIAVGAIADLVVLDGNPLEDIGVVADEGARVEYVLQRGTLVKRQAAGREGHHHHHH", "soluble on expression in E. coli": "soluble"}
{"sequence": "MYKLIAIDMDGTLLNDHHEVTEEVRDALHAAKAEGVKIVLCTGRPIGGVQRYLDELNLIEEGDYVIAYNGALVQNTHTNEVVSELSLGYDDLTSLYDLSLELKTPMHFFDSSNLYTPNRDISEFTVYESYVTQVPLHFRKIDEVPKDILIPKVMFIDKPENLSRVITSIPKDVREKYTMVRSAPFFYEILHSEASKGNAVRQLAQLLGIEQAEVMCIGDNGNDLTMIEWAGCGVAMANAIPEVLEAANFQTRSNNEHGVAHAIHELVLAKLEHHHHHH", "soluble on expression in E. coli": "soluble"}
{"sequence": "SLGFIMKLTKTALCTALFATFTFSANAQTYPDLPVGIKGGTGALIGDTVYVGLGSGGDKFYTLDLKDPSAQWKEIATFPGGERNQPVAAAVDGKLYVFGGLQKNEKGELQLVNDAYRYNPSDNTWMKLPTRSPRGLVGSSGASHGDKVYILGGSNLSIFNGFFQDTVAAGEDKAKKDEIAAAYFDQRPEDYFFTTELLSYEPSTNKWRNEGRIPFSGRAGAAFTIQGNELVVVNGEIKPGLRTAETHQGKFTAKGVQWKNLPDLPAPKGKSQDGLAGALSGYSNGHYLVTGGANFPGSIKQFKEGKLHAHKGLSKAWHNEVYTLNNGKWRIVGELPMNIGYGFSVSYNNKVLLIGGETDGGKALTSVKAISYDGKKLTIE", "soluble on expression in E. coli": "not soluble"}
{"sequence": "MAHHHHHHMAQAIRDAFTEEASLTVVEEWSSKVVSDLEARATNAHHARQGVLVKPYTADAAETVPVTIVASLREFQGQLYDIYRAAETIRTVIACRIPELKAEDNLGVEVQMTVLKMIDSLEGKLLGSSSGDKEGGAPGVAGMYAAREYLAARGSVEDKVLGKVSDDDKKTKSAAPSVLMELQQIDADALLKLELSATQISTQIRSFINAYAVNWKKLIQPRTNASEKSIS", "soluble on expression in E. coli": "soluble"}
{"sequence": "MSEFNEKPEKLIVDGLRLDGRKFDELRPIKIEASVLKRADGSCYLEMGKNKVIAAVFGPREVHPRHLQDPSKAIIRYRYNMAPFSVEERKRPGPDRRSIEISKVSKEAFEAVIMKELFPRSAIDIFVEVLQADAGSRTACLNAASVALVDAGVPMKGMITSVAVGKADGQLVLDPMKEEDNFGEADMPFAFLIRNGKIESIALLQMDGRMTRDEVKQAIELAKKGALQIYEMQREAILRRYIEVGEEMDEITEGGEDA", "soluble on expression in E. coli": "soluble"}
{"sequence": "MSLQKEEILKLPISYKNIRLIRLNLPQKEQFVSGIGVRNSRKALIIEWEDDNGTKGYGECSCRPDPYYSDEFIEGAIALVNQFIVPFLKQNQTFGDLLKLLDKIRGWNFTKAAVEMAALQVIEQNTGKSPFQLLQNKPLAHVPVGISLGLYTDVDRMKKVVKNALETGYKRLKFKISPKVRVDFFEEINPMLFEADTFVSFDANGSFGENDLDIFHYFANTYQSMIEQPFAPTRFDILSKVKKEHPEIYICYDEEIKSIGDLIKLHHLGMLDEVNLKVGRVGGVMKSIEIIQYCAEHNIPCWIGGMFETGIGRTLNLRMASYLPNARAHDLSPSDRYFLEDIVQPNVQMNNGLVNMESLKNCTIQPNLIDKYTIDQKTLTRICEGHHHHHH", "soluble on expression in E. coli": "soluble"}
{"sequence": "MDGDIIDQYRFPSPHPGIDVFFVTYMSQGLKVKGFLAAPKRKGVYDGFLYLRGGIKNVGQVRVPRLVQFASQGFVVFAPLYRGNGGGEGNEDFAGDDRYDALAGFHLLRRHPLVHPGRVHMFGFSRGGAMALHAAVMAEGVCSVAVWGGVADLELTYWERPDLRRMMKRVIGGTPNKCPERYRHRTPLYHLERLKAPVLIIHGGRDENVSIEHAWRLERRLKQLGKPVTAWYFPEFTHYFPPQANRETVQRLTEWMKQQPTM", "soluble on expression in E. coli": "not soluble"}
{"sequence": "MYDWFKQMRKESPVYYDGKVWNLFKYEDCKMVLNDHKRFSSNLTGYNDKLEMLRSGKVFFDIPTRYTMLTSDPPLHDELRNLTADAFNPSNLPVDFVREVTVKLLSELDEEFDVIESFAIPLPILVISKMLGINPDVKKVKDWSDLVALRLGRADEIFSIGRKYLELISFSKKELDSRKGKEIVDLTGKIANSNLSELEKEGYFILLMIAGNETTTNLIGNAIEDFTLYNSWDYVREKGALKAVEEALRFSPPVMRTIRVTKEKVKIRDQVIDEGELVRVWIASANRDEEVFKDPDSFIPDRTPNPHLSFGSGIHLCLGAPLARLEARIALEEFAKKFRVKEIVKKEKIDNEVLNGYRKLVVRVERT", "soluble on expression in E. coli": "soluble"}
{"sequence": "MQVVSSATLPPTVASADLAIVGGRSSDEDVIKYSAIQTIKQEQQQQQQQQSNTALPSYNFPFFNGMQNDFPPNRMLYNDNTMQKSENDHFTGMNLSTSASSSGNSTSSKDQSRRQFYTESSNSSGNGAAATSGSNGSSSSTESKSDVFNISMNAFAATPGSKSEDHNIPSFNMLSSYYTGALKLSNSTSFANPDPYQILGPTSKNLAHSGSGQTQLWQFLLELLSDKRYSEVITWEGTQGEFKLVDPDEVARKWGERKSKPNMNYDKMSRALRYYYDKNIMAKVHGKRYAYKFDFQGIAQALQPPTASHPQDYFNSHAMGRIAPDFSSWTSANYRSLNIAGFNNGSTIFNPSVNYSAFGATGTSNNLSAARAFPLYR", "soluble on expression in E. coli": "not soluble"}
{"sequence": "MHYSDHFHKVCIASELNEFTDAFRIIYSWLFSLKLLEPKFMDKDSIFCRLFTSIHFRLKYIAAPHYEERKRHLETLEKDGVPKAYIREYAEQQLNVIKQFKLEQKPIGHSFSTDEIIDAARCFGELSNGISVRSRYQRFRAVCMSWFSFMEVITGKDKSYPGSNYVDMFCEWHLTSKGSSVGATVHICQELDRFFAYINSKSVTINLLTAACIDGYIETYQSACFARKTVASKVSILRTFLRYLYNRSIIKTDMSSYLISPRIYTCEILSVSPNENDLNRISHFYDGNTPSAIRNKAILLLLIEYGMRSGGSYRFKT", "soluble on expression in E. coli": "not soluble"}
{"sequence": "MGHHHHHHSHKNVVHQLSVTLEDLYNGATRKLALQKNVICDKCEGRGGKKGAVECCPNCRGTGMQIRIHQIGPGMVQQIQSVCMECQGHGERISPKDRCKSCNGRKIVREKKILEVHIDKGMKDGQKITFHGEGDQEPGLEPGDIIIVLDQKDHAVFT", "soluble on expression in E. coli": "not soluble"}
{"sequence": "MGSDKIHHHHHHMKIAQVAPLWERVPPPSYGGIELVVSHLTNELVRRGHEVTLFASGDSQTLAHLETVCPRALRLDKNVQDYAAYETLELSQVYQNATEFDIIHSHLGISALPLANLVKTPTVHTLHGHFTKDNQNVFSHHHQQPYVSISNAQRQIHLNYIKTVYNGIEPKDYPFISQPKEPPYLAFLGRFSPEKGPHQAIAIAKQSGWRLKMAGKVDIVDAKFFEQEILPHIDGQQIEYLGEINHTEKAELLGNAAATLFPINWQEPFGLVMIESMATGTPVIGMNLGSVPEVIDQGKTGFICRTYEEMIQMIAVTLELDRRDCRESVVNKFSVSHMVDGYEAVYQQIIKDRVNLNGYIHTAKIRF", "soluble on expression in E. coli": "not soluble"}
{"sequence": "GSNGMSQLPAPVSVESSWRYIDTQGQIHGPFTTQMMSQWYIGGYFASTLQISRLGSTPETLGINDIFITLGELMTKLEKYDTDPFTTFDKLHVQTTSSDS", "soluble on expression in E. coli": "soluble"}
{"sequence": "MRCPWLIRVGVDIGGTFTDLIVFDEGSGRLESLKVLTTPREPWVGVIRALEEASVDIEGVDVVIHATTLGTNMFLGQEGLEPPSAVLITNRGFRDVLEIGRQNRPELYNLYFTRPKPLVPRDRRLVVKGRIDARGNVVEDIDRGEVARLAKEWCGRADVFIVSMLNSHINPVHEDEIGSIITREC", "soluble on expression in E. coli": "not soluble"}
